The record followed here is patent publication US20210275641A1 (SYNTHEKINE, published 2021).

Sequences and labels used below:
T1: human high affinity trimeric IL-2 receptor (CD25/CD122/CD132) (human, UniProt P01589 22-272; P14784 27-551; P31785 23-369)
T1 sequence 1: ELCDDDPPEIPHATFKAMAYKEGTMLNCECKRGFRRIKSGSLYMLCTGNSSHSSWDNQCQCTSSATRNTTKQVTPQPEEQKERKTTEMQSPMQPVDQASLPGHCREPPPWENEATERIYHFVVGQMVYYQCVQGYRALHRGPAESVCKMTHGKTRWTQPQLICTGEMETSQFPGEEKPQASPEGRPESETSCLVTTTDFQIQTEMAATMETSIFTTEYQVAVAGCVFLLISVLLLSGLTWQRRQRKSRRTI
T1 sequence 2: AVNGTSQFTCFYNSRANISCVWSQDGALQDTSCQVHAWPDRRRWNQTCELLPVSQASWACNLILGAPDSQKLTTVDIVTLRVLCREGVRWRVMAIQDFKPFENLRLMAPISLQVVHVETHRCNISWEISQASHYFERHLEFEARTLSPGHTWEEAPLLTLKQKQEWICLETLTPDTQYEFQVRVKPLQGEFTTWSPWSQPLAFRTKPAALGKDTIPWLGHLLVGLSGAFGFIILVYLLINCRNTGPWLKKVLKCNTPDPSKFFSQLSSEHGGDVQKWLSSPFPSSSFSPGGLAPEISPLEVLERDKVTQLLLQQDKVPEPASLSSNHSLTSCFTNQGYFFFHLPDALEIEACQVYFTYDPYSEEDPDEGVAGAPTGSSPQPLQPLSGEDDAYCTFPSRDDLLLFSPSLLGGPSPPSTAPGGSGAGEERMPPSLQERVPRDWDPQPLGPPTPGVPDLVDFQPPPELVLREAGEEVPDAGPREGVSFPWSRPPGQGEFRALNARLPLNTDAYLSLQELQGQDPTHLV
T1 sequence 3: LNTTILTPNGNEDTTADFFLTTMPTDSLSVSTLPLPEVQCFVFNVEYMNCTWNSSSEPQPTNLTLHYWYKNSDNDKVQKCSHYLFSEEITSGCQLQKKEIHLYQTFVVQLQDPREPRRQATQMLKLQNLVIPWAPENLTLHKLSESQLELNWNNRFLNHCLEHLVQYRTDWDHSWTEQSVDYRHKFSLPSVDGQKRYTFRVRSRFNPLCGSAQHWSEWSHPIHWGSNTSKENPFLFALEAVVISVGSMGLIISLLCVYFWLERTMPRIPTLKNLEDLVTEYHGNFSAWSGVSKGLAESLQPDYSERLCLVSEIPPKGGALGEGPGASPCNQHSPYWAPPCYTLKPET

B1: RGH (ligand)
cytokine: APTSSSTKKTQLQLEHLRLDLGMILNGINNYKNPKLTRMLTFKFYMPKKATELKHLQCLEEELKPLEEVLNLAQSKNFHLRPRDLISNINVIVLELKGSETTFMCEYADETATIVEFLNRWITFCHSIISTLT
B2: RYH (ligand)
cytokine: APTSSSTKKTQLQLEHLRLDLYMILNGINNYKNPKLTRMLTFKFYMPKKATELKHLQCLEEELKPLEEVLNLAQSKNFHLRPRDLISNINVIVLELKGSETTFMCEYADETATIVEFLNRWITFCHSIISTLT
B3: RIH (ligand)
cytokine: APTSSSTKKTQLQLEHLRLDLIMILNGINNYKNPKLTRMLTFKFYMPKKATELKHLQCLEEELKPLEEVLNLAQSKNFHLRPRDLISNINVIVLELKGSETTFMCEYADETATIVEFLNRWITFCHSIISTLT
B4: RLH (ligand)
cytokine: APTSSSTKKTQLQLEHLRLDLLMILNGINNYKNPKLTRMLTFKFYMPKKATELKHLQCLEEELKPLEEVLNLAQSKNFHLRPRDLISNINVIVLELKGSETTFMCEYADETATIVEFLNRWITFCHSIISTLT
B5: RWH (ligand)
cytokine: APTSSSTKKTQLQLEHLRLDLWMILNGINNYKNPKLTRMLTFKFYMPKKATELKHLQCLEEELKPLEEVLNLAQSKNFHLRPRDLISNINVIVLELKGSETTFMCEYADETATIVEFLNRWITFCHSIISTLT
B6: RVH (ligand)
cytokine: APTSSSTKKTQLQLEHLRLDLVMILNGINNYKNPKLTRMLTFKFYMPKKATELKHLQCLEEELKPLEEVLNLAQSKNFHLRPRDLISNINVIVLELKGSETTFMCEYADETATIVEFLNRWITFCHSIISTLT
B7: RAH (ligand)
cytokine: APTSSSTKKTQLQLEHLRLDLAMILNGINNYKNPKLTRMLTFKFYMPKKATELKHLQCLEEELKPLEEVLNLAQSKNFHLRPRDLISNINVIVLELKGSETTFMCEYADETATIVEFLNRWITFCHSIISTLT
B8: RMH (ligand)
cytokine: APTSSSTKKTQLQLEHLRLDLMMILNGINNYKNPKLTRMLTFKFYMPKKATELKHLQCLEEELKPLEEVLNLAQSKNFHLRPRDLISNINVIVLELKGSETTFMCEYADETATIVEFLNRWITFCHSIISTLT
B9: RHH (ligand)
cytokine: APTSSSTKKTQLQLEHLRLDLHMILNGINNYKNPKLTRMLTFKFYMPKKATELKHLQCLEEELKPLEEVLNLAQSKNFHLRPRDLISNINVIVLELKGSETTFMCEYADETATIVEFLNRWITFCHSIISTLT
B10: RFH (ligand)
cytokine: APTSSSTKKTQLQLEHLRLDLFMILNGINNYKNPKLTRMLTFKFYMPKKATELKHLQCLEEELKPLEEVLNLAQSKNFHLRPRDLISNINVIVLELKGSETTFMCEYADETATIVEFLNRWITFCHSIISTLT
B11: RSH (ligand)
cytokine: APTSSSTKKTQLQLEHLRLDLSMILNGINNYKNPKLTRMLTFKFYMPKKATELKHLQCLEEELKPLEEVLNLAQSKNFHLRPRDLISNINVIVLELKGSETTFMCEYADETATIVEFLNRWITFCHSIISTLT
B12: RKH (ligand)
cytokine: APTSSSTKKTQLQLEHLRLDLKMILNGINNYKNPKLTRMLTFKFYMPKKATELKHLQCLEEELKPLEEVLNLAQSKNFHLRPRDLISNINVIVLELKGSETTFMCEYADETATIVEFLNRWITFCHSIISTLT

This assay has as its target T1, human high affinity trimeric IL-2 …. Nature of the assay: cell-based or functional assay.
As to B1, the “pSTAT5 ratio YT CD25/YT, dilution factor 2, lower table” value is 0.6; the “pSTAT5 ratio YT CD25/YT, dilution factor 4, lower table” value was 0.8; the “pSTAT5 ratio YT CD25/YT, dilution factor 8, lower table” value amounted to 1.1; the “pSTAT5 ratio YT CD25/YT, dilution factor 16, lower table” value is 2.1. For the same molecule, the “pSTAT5 ratio YT CD25/YT, dilution factor 32, lower table” value was 3.4; the “pSTAT5 ratio YT CD25/YT, dilution factor 64, lower table” value came to 5.5; the “pSTAT5 ratio YT CD25/YT, dilution factor 128, lower table” value came out at 6.9.
For the molecule B2, the “pSTAT5 ratio YT CD25/YT, dilution factor 2, lower table” value was found to be 0.9; the “pSTAT5 ratio YT CD25/YT, dilution factor 4, lower table” value was 2.2; the “pSTAT5 ratio YT CD25/YT, dilution factor 8, lower table” value worked out at 3.4; the “pSTAT5 ratio YT CD25/YT, dilution factor 16, lower table” value came to 5.5. The “pSTAT5 ratio YT CD25/YT, dilution factor 32, lower table” value amounted to 8.7; the “pSTAT5 ratio YT CD25/YT, dilution factor 64, lower table” value stood at 11.8; the “pSTAT5 ratio YT CD25/YT, dilution factor 128, lower table” value was 10.5.
With B3, the “pSTAT5 ratio YT CD25/YT, dilution factor 2, lower table” value amounted to 1.1; the “pSTAT5 ratio YT CD25/YT, dilution factor 4, lower table” value was found to be 1.5; the “pSTAT5 ratio YT CD25/YT, dilution factor 8, lower table” value is 2.4; the “pSTAT5 ratio YT CD25/YT, dilution factor 16, lower table” value stood at 3.8. Besides, the “pSTAT5 ratio YT CD25/YT, dilution factor 32, lower table” value amounted to 6; the “pSTAT5 ratio YT CD25/YT, dilution factor 64, lower table” value came to 8.4; the “pSTAT5 ratio YT CD25/YT, dilution factor 128, lower table” value was 11.5.
In the case of B4, the “pSTAT5 ratio YT CD25/YT, dilution factor 2, lower table” value was 0.8; the “pSTAT5 ratio YT CD25/YT, dilution factor 4, lower table” value amounted to 1.1; the “pSTAT5 ratio YT CD25/YT, dilution factor 8, lower table” value was 1.5; the “pSTAT5 ratio YT CD25/YT, dilution factor 16, lower table” value worked out at 2.5. For the same molecule, the “pSTAT5 ratio YT CD25/YT, dilution factor 32, lower table” value came to 3.3; the “pSTAT5 ratio YT CD25/YT, dilution factor 64, lower table” value turned out to be 4.9; the “pSTAT5 ratio YT CD25/YT, dilution factor 128, lower table” value amounted to 6.7.
For B5, the “pSTAT5 ratio YT CD25/YT, dilution factor 2, lower table” value was 0.8; the “pSTAT5 ratio YT CD25/YT, dilution factor 4, lower table” value is 0.8; the “pSTAT5 ratio YT CD25/YT, dilution factor 8, lower table” value was determined as 1.2; the “pSTAT5 ratio YT CD25/YT, dilution factor 16, lower table” value was determined as 2. Also, the “pSTAT5 ratio YT CD25/YT, dilution factor 32, lower table” value is 3; the “pSTAT5 ratio YT CD25/YT, dilution factor 64, lower table” value turned out to be 5; the “pSTAT5 ratio YT CD25/YT, dilution factor 128, lower table” value came out at 9.1.
B6: the “pSTAT5 ratio YT CD25/YT, dilution factor 2, lower table” value turned out to be 0.9; the “pSTAT5 ratio YT CD25/YT, dilution factor 4, lower table” value is 0.9; the “pSTAT5 ratio YT CD25/YT, dilution factor 8, lower table” value was determined as 1.4; the “pSTAT5 ratio YT CD25/YT, dilution factor 16, lower table” value is 1.9. In addition, the “pSTAT5 ratio YT CD25/YT, dilution factor 32, lower table” value is 3.3; the “pSTAT5 ratio YT CD25/YT, dilution factor 64, lower table” value turned out to be 5.3; the “pSTAT5 ratio YT CD25/YT, dilution factor 128, lower table” value was 8.
Take B7: the “pSTAT5 ratio YT CD25/YT, dilution factor 2, lower table” value was 0.6; the “pSTAT5 ratio YT CD25/YT, dilution factor 4, lower table” value is 0.7; the “pSTAT5 ratio YT CD25/YT, dilution factor 8, lower table” value turned out to be 0.8; the “pSTAT5 ratio YT CD25/YT, dilution factor 16, lower table” value came out at 1.2. The “pSTAT5 ratio YT CD25/YT, dilution factor 32, lower table” value worked out at 1.4; the “pSTAT5 ratio YT CD25/YT, dilution factor 64, lower table” value stood at 2.3; the “pSTAT5 ratio YT CD25/YT, dilution factor 128, lower table” value came out at 3.7.
In the case of B8, the “pSTAT5 ratio YT CD25/YT, dilution factor 2, lower table” value stood at 0.6; the “pSTAT5 ratio YT CD25/YT, dilution factor 4, lower table” value turned out to be 0.8; the “pSTAT5 ratio YT CD25/YT, dilution factor 8, lower table” value came out at 1.1; the “pSTAT5 ratio YT CD25/YT, dilution factor 16, lower table” value came to 1.4. Besides, the “pSTAT5 ratio YT CD25/YT, dilution factor 32, lower table” value amounted to 2.3; the “pSTAT5 ratio YT CD25/YT, dilution factor 64, lower table” value turned out to be 3.9; the “pSTAT5 ratio YT CD25/YT, dilution factor 128, lower table” value was determined as 5.1.
B9: the “pSTAT5 ratio YT CD25/YT, dilution factor 2, lower table” value came to 2; the “pSTAT5 ratio YT CD25/YT, dilution factor 4, lower table” value was found to be 2; the “pSTAT5 ratio YT CD25/YT, dilution factor 8, lower table” value was determined as 2.7; the “pSTAT5 ratio YT CD25/YT, dilution factor 16, lower table” value was found to be 3.9. Further, the “pSTAT5 ratio YT CD25/YT, dilution factor 32, lower table” value stood at 6.3; the “pSTAT5 ratio YT CD25/YT, dilution factor 64, lower table” value was 10.6; the “pSTAT5 ratio YT CD25/YT, dilution factor 128, lower table” value came out at 16.
For the molecule B10, the “pSTAT5 ratio YT CD25/YT, dilution factor 2, lower table” value was 0.7; the “pSTAT5 ratio YT CD25/YT, dilution factor 4, lower table” value stood at 0.8; the “pSTAT5 ratio YT CD25/YT, dilution factor 8, lower table” value is 1.3; the “pSTAT5 ratio YT CD25/YT, dilution factor 16, lower table” value amounted to 2.5. Moreover, the “pSTAT5 ratio YT CD25/YT, dilution factor 32, lower table” value stood at 4.3; the “pSTAT5 ratio YT CD25/YT, dilution factor 64, lower table” value was determined as 7.4; the “pSTAT5 ratio YT CD25/YT, dilution factor 128, lower table” value worked out at 10.6.
B11: the “pSTAT5 ratio YT CD25/YT, dilution factor 2, lower table” value was determined as 1; the “pSTAT5 ratio YT CD25/YT, dilution factor 4, lower table” value was determined as 0.9; the “pSTAT5 ratio YT CD25/YT, dilution factor 8, lower table” value was 1.1; the “pSTAT5 ratio YT CD25/YT, dilution factor 16, lower table” value is 1.8. Further, the “pSTAT5 ratio YT CD25/YT, dilution factor 32, lower table” value is 2.8; the “pSTAT5 ratio YT CD25/YT, dilution factor 64, lower table” value is 5; the “pSTAT5 ratio YT CD25/YT, dilution factor 128, lower table” value was 6.8.
With B12, the “pSTAT5 ratio YT CD25/YT, dilution factor 2, lower table” value came to 1; the “pSTAT5 ratio YT CD25/YT, dilution factor 4, lower table” value worked out at 1.1; the “pSTAT5 ratio YT CD25/YT, dilution factor 8, lower table” value stood at 1.8; the “pSTAT5 ratio YT CD25/YT, dilution factor 16, lower table” value amounted to 3. Further, the “pSTAT5 ratio YT CD25/YT, dilution factor 32, lower table” value stood at 5.5; the “pSTAT5 ratio YT CD25/YT, dilution factor 64, lower table” value came out at 8.1; the “pSTAT5 ratio YT CD25/YT, dilution factor 128, lower table” value is 11.
